Test results from EP1292709B1.
Where no end group is shown, it is not given here.

Molecular target: receptors that recognize the sequence GRGDSPG
Assay: cell-based or functional assay

- adhesion and spreading of human foreskin fibroblasts on conjugate addition gels, 6 hours post-seeding: 50%
B1: … (peptide)
peptide: GC(PEG acrylate)GYGRGDSPG
